Source: the RNAGym collection of RNA variant scans (doi:10.1073/pnas.2313332121)

B1: TPR t1 (parent)
chain: GACCAAUCUGCCCUCAGAGCUCGAGAACAUCUUCGGAUGCAGAGGAGGCAGGCUUCGGUGGCGCGAUAGCGCCAACGUCCUCAACCUCCAAUGCAUCCCACCACAUGAUGAUGCCUGAAGAGCCUUGGUUUUUUG

Variants of: B1
Test: polymerase ribozyme fitness, log enrichment relative to wild type (log ratio); higher = more active; in vitro selection for triplet polymerase activity
Outline: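 Both subunits of a heterodimeric triplet polymerase ribozyme were given their own mutant library, built by PCR and transcribed. Each library was annealed with a biotinylated primer, the partner subunit and triplets, incubated frozen at −7 °C, and its extended constructs gel-excised, captured on streptavidin beads and amplified by RT-PCR, all in one round done in triplicate. Fitness is the logarithm of genotype enrichment relative to wild-type enrichment, with replicates averaged by inverse-variance weighting. That logarithm is base 2, and Illumina-sequenced genotypes needed ≥10 input reads and ≥1 read per output.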

Row | Variant | polymerase ribozyme fitness (log ratio)
1 | GACCAAUCUGCCCUCAGAGCUGGAGAACAUCGUCGGAUGCAGAGGAGGCAGGCUUCGGUGGCGCGAUAGGGCCAACGUCCUCAACCUCCAAUGCAUCCCACCACAUGAUGAUGCCUGAAGAGCAUUGGUUUUUUG [C22G U32G C70G C124A] | -5.41
2 | GACCAAUCUGCCCUCAGAGCUGGAGAACAUCUUCGGAUGCAUAGGAGGCAGGCUUCGGUGGCGCGAUAGCGCCAACGUCCUCAACCUCCAAUGCAUCCCACCACAUGAUGAUGCCUGAAGAGCCUUGGUUUUUUG [C22G G42U] | -4.63
3 | GACCAAUCUGCCCUCAGAGCUGGAGCACAUCUUCGGAUGCAGAGGAGGCAGGCUUCGGUGGCGCGAUAGCGCCAACGUCCUCAACCUCCAAUGAUUCCCACCACAUGAUGAUGCCUGAGGAGCCUUGGUUUUUUG [C22G A26C C94A A95U A119G] | -4.33
4 | GACCAAUCUGCCCUCAGAGCUGGAGAACAUCUUCGGAUGCAGAGGAGGCAGGCUUCGGUGGCACGAUAGCGCCAACGUCCUCAACCUCCAAUGCAUCCCACCACAUGAUGAUGCCUGAAGAGCCUUGGUUUUUUG [C22G G63A] | -4.12
5 | GACCAAUCUGCCCUCAGAGCUGGAGAACAUCUUCGGAGGCAGGGGAGGCAGGCUUCGGUGGCGCGAUAGCGCCAACGUCCUCAACCUCCAAUGCAUCCCACCACAUGAUGAUUCCUGAGGAGCCUUGGUUUUUUG [C22G U38G A43G G113U A119G] | -4.22
6 | GACCAAUCUGCCCUCAGAGCUGGAGAACAUCUUCGGAUGCAGAGGAGGCAGGCUUCGGUGGCGCGAUAGCGCCAACGUCCUCAACCUCCAAUGCAUCCCACCACAUGAUGAUGCCUAAGGAGCCUUGGUUUUUUG [C22G G117A A119G] | -1.55
7 | GACCAAUCUGCCCUCAGAGCUGAAGAACAUCUUCGGAUGCAGAGGAGGCAGGCUUCGGUGGCGCGAUAGCGCCAACGUCCUCAACCUCUAAUGCAUCCCACCACAUGAUGAUGUCUGAAGAGCCUUGGUUUUUUG [C22G G23A C89U C114U] | -4.41
8 | GACCAAUCUGCCCUCAGAGCUGGAGAACAUCUUCGGAUGCAGAGGAGGCAGGUUUCGGUGGCGCGAUAGCGCCAACGUCCUCAAUCUCCAAUGCAUCCCACCACAUGAUGAAGCCUGAAGAGCCUUGGUUUUUUG [C22G C53U C85U U112A] | -3.51
9 | GACCAAUCUGCCCUCAGAGCUGGAGAACAUCUUCGGAUGCAGAGGAGGCAGGCUUCGGUGGCGCGAUAGCGCCAACGUCCUCAACCUCCAAUGCAUCCCACCUCAUGAUGAUGCCUGAAGAGCCUUGGUUUUUUG [C22G A103U] | -4.6
10 | GACCAAUCUGCCCUCAGAGCUGGAGAACAUCUUCGGAUGCAGAGGAGGCAGGCUUCGGUGGCGCGAUAUCGCCAACGUCCUCAACCUCCAAUGCAUCCCACCACAUGAUGAAGCCUGUAGAGCCUUGGUUUUUUG [C22G G69U U112A A118U] | -0.675
11 | GACCAAUCUGCCCUCAGAGCUGGAGAACAUCUUUGGAAGCAGAGGAGGCAGGCCUCGGUGGCGCGAUAGCGCCAACGUCCUCCACCUCCAAUGCAUCCCACCACAGGAAGAUGGCUGAAGAGCCUUGGUUUUUUG [C22G C34U U38A U54C A83C U106G U109A C114G] | -6.61
12 | GACCAAUCUGCCCUCAGAGCUGGAGAACAUCUUCGGAUGCAGAGGAGCCAGGCUUCGGUGGCGCGAUAGCGCCAACGUCCUCAAGCUCCAAUGCAUCCCACCACAUGAUGAGGCCUGAAGAGCCUUGGUUUUUUG [C22G G48C C85G U112G] | -3
13 | GACCAAUCUGCCCUCAGAGCUGGAGAACAUCUUCGCAUGCAUAGGAGGCAGGCUUCGGUGGCGCGAUAGCGCCAACGUCCUCAACCUCCAUUGCAUCCCACCACAUGAUGAAGCCUGAAGAGCCUUGGGUUUUUG [C22G G36C G42U A91U U112A U129G] | -4.65
14 | GACCAAUCUGCCCUCAGAGCUGGAGAACAUCUUCGGAUGCAGAGGAGCCAGGCUUCGGUGGCGCGAUAGCGCCAACAUCCUCAAGCUCCAAUGCAUCCCACCACAUGAUGAGGCCUGAAGAGCCUUGGUUUUUUG [C22G G48C G77A C85G U112G] | -3.5
15 | GACCAAUCUGCCCUCAGAGCUGGAGAACAUCUUCGGAUGCAGAGUAGGCAGGCUUGGGUGGCGCGAUAGCGCCAACGUCCUCAACCUCCAAUGCAUCCCACCACAUGAUGUUGCCUGAAGAGCCUUGGUUUUUUG [C22G G45U C56G A111U] | -3.8
16 | GACCAAUCUGCCCUCAGAGCUGGAGAACAUCUUCGGAUGCAGAGGAGGCAGGCUUCGGUGGCGCGAUAGCGCAAACGUCCUCAACCUCCAAUACAUCCCACCACAUGAUGAUGCCUGAAGAGCCUUGGUUUUUUG [C22G C73A G93A] | -4.3
17 | GACCAAUCUGCCCUCAGAGCUGGAGACCAUCUUCGGAUGCAGAGGAGGCAGGCUUCGGAGGCGCGAUAGCGCCAACGUCCUCAACCUCCAAUGCGUCCCACCACAUGAUGAUGCCUGAAGAGCCUUGGUUUUUUG [C22G A27C U59A A95G] | -3.9
18 | GACCAAUCUGCCCUCAGAGCUAGAGAACAUCUUCGGAUGCAGAGGAGGCAGGCUUCGGUGGCGCGAUAGCGCCAACGUCCUCAACCUCCAAUGCAUCCCACCACAUGAUGAUGCCUGAAGAGCCUUGGGUUUUUG [C22A U129G] | -6.22
19 | GACCAAUCUGCCCUCAGAGCUGGAGAACAUCUUCGGAUGCAGAGGAGGCAGGCUUCGGUGGCGUGAUAGCGCCAACGUCCUCAACCUCCAAUGCAUCCCACCACAUGAUGAGGCCUGAAGAGCCUUGGUUUUUUG [C22G C64U U112G] | -2.89
20 | GACCAAUCUGCCCUCAGAGCUGGAGAACAUCUUCGGAUGCAGAGGAGGCAGGCUUCGGUGGCGCGAUAGCGCUAACGUCCUCAACCUCCAAUGCAUCCCACCACAUGAUGAUGCCUGAAGAGCCUUGGUUUUUUG [C22G C73U] | -2.27
21 | GACCAAUCUGCCCUCAGAGCUGGAGAACAUCUUCGGAUGCAGAGGAGGCAGGCUUCGGUGGCGCGAUAGCGCCAACGUCCUCAACCUCCAAUCCAUCCCACCGCAUGAUUAUGCCUGAAGAGCCUUGGUUUUUUG [C22G G93C A103G G110U] | -6.45
